# Measured values as given in patent publication US20190359719A1 (published 2019).
# T1: recombinant c-Met extracellular domain (R&D Systems cat#358-MT-100/CF) (UniProt P08581 25-932)
# T1 chain: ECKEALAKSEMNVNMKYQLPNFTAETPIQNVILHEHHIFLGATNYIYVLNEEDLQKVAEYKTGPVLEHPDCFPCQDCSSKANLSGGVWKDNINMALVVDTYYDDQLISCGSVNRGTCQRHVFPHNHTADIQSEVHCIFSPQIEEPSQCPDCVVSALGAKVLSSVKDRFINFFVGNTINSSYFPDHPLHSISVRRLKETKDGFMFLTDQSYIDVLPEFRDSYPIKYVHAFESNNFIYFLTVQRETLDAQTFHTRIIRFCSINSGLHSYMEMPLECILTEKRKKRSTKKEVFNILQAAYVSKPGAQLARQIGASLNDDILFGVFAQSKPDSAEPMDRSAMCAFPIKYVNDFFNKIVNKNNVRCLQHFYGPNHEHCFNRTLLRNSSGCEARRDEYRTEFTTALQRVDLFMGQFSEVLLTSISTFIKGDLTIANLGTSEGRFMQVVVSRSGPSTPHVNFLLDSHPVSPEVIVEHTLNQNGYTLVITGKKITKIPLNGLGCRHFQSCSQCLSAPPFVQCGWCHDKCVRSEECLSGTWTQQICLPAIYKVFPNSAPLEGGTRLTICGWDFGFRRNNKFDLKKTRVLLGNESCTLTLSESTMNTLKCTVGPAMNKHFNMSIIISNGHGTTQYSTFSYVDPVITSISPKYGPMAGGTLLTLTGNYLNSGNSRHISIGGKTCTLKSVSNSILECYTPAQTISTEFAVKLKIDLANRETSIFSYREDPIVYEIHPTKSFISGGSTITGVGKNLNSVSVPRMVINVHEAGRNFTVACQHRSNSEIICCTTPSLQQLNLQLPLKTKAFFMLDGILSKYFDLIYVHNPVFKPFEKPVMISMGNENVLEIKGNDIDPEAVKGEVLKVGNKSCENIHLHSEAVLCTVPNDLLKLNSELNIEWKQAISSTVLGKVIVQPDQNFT
# Molecular target: T1, recombinant c-Met extracellular domain …
# Experiment: ELISA, blocking of HGF binding to c-Met
row,Binder,IC50 [nM]
1,"A1-4 anti-c-Met antibody (antibody, V domains shown) VH: QVQLQESGPGLVKPSQTLSLTCTVSGGSISSGGYYWSWIRQHPGKGLEWIGESSHSGSTNYNPSLKSRVTISVDTSKNQFSLKLSSVTAADTAVYYCARGRDGYYFDAWGQGTLVTVSS VL: LPVLTQPASVSGSPGQSITISCTGTSSDVGGYPYVSWYQQHPGKAPKLMIYVVSDRPSGVSTRFSGSKSGNTASLTISGLQAEDEADYYCSSYRSSSALVVFGGGTQLTVL",1.44
2,"A1-32 anti-c-Met antibody (antibody, V domains shown) VH: QVQLQESGPGLVKPSQTLSLTCTVSGGSISSGGYYWSWIRQHPGKGLEWIGESTHSGSTNYNPSLDSRVTISVDTSKNQFSLKLSSVTAADTAVYYCARGRDGYYLDQWGQGTLVTVSS VL: LPVLTQPASVSGSPGQSITISCTGTSFDVGGYPYVSWYQQHPGKAPKLMIYDVSDRPSGVSTRFSGSKSGNTASLTISGLQAEDEADYYCSSFRSSAALVVFGGGTKLTVL",0.91
3,"A1-24 anti-c-Met antibody (antibody, V domains shown) VH: QVQLQESGPGLVKPSQTLSLTCTVSGGSISSGGYYWSWIRQHPGKGLEWIGESTHSGSTNYNPSLESRVTISVDTSKNQFSLKLSSVTAADTAVYYCARGRDSYDFDAWGQGTLVTVSS VL: LPVLTQPASVSGSPGQSITISCTGTSFDVGGYNYVSWYQQHPGKAPKLMIYDVSDRPSGVSTRFSGSKSGNTASLTISGLQAEDEADYYCSSFRSSAALVVFGGGTKLTVL",1.52
4,"A1-2 anti-c-Met antibody (antibody, V domains shown) VH: QVQLQESGPGLVKPSQTLSLTCTVSGGSISSGGYYWSWIRQHPGKGLEWIGESTHSGSTNYNPSLKSRVTISVDTSKNQFSLKLSSVTAADTAVYYCARGRDGYDFDAWGQGTLVTVSS VL: LPVLTQPASVSGSPGQSITISCTGTSFDVGGYNYVSWYQQHPGKAPKLMIYDVSDRPSGVSTRFSGSKSGNTASLTISGLQAEDEADYYCSSFRSSSALVVFGGGTKLTVL",1.22
5,"A1-9 anti-c-Met antibody (antibody, V domains shown) VH: QVQLQESGPGLVKPSQTLSLTCTVSGGSISSGGYYWSWIRQHPGKGLEWIGEISHSGSTNYNPSLKSRVTISVDTSKNQFSLKLSSVTAADTAVYYCARGRDGYYLDQWGQGTLVTVSS VL: LPVLTQPASVSGSPGQSITISCTGTSSDVGGYNYVSWYQQHPGKAPKLMIYNVSDRPSGVSTRFSGSKSGNTASLTISGLQAEDEADYYCSSFRSSSALVVFGGGTKLTVL",1.72
6,"A1-6 anti-c-Met antibody (antibody, V domains shown) VH: QVQLQESGPGLVKPSQTLSLTCTVSGGSISSGGYYWSWIRQHPGKGLEWIGEITHSGSTNYNPSLKSRVTISVDTSKNQFSLKLSSVTAADTAVYYCARGRDGYDIDAWGQGTLVTVSS VL: LPVLTQPASVSGSPGQSITISCTGTSWDVGGYPYVSWYQQHPGKAPKLMIYDVSDRPSGVSTRFSGSKSGNTASLTISGLQAEDEADYYCSSYRSVSALVVFGGGTKLTVL",1.34
7,"A1-8 (antibody, V domains shown) VH: QVQLQESGPGLVKPSQTLSLTCTVSGGSISSGGYYWSWIRQHPGKGLEWIGEISHSGSTNYNPSLESRVTISVDTSKNQFSLKLSSVTAADTAVYYCARGRDGYDLDRWGQGTLVTVSS VL: LPVLTQPASVSGSPGQSITISCTGTSSDVGGYPYVSWYQQHPGKAPKLMIYRVSDRPSGVSTRFSGSKSGNTASLTISGLQAEDEADYYCSSYRSSAALVVFGGGTKLTVL",1.14

# Molecular target: T1, recombinant c-Met extracellular domain …
# Experiment: Octet Red (BLI)
row,Binder,Kd [nM]
1,"H8 anti-c-Met antibody in IgG format (antibody, V domains shown) VH: EVQLVQSGAEVKKPGASVKVSCKASGYTFSSYYMHWVRQAPGQGLEWMGWINPNSGNTGYAQKFQGRVTMTRNTSISTAYMELSSLRSEDTAVYYCARRGTTVSFDYWGQGTLVTVS VL: QLVLTQSPSVSVAPGQRVTISCSGSNSNIGNNYVSWYHHLPGTAPKLLIYDNNKRPSGIPDRFSGSKSGTSATLGITGLQPGDEAHYYCGTWDSTLSAGVFGGGTKLTVL",0.8

# Molecular target: T1, recombinant c-Met extracellular domain …
# Experiment: ELISA, blocking of HGF binding to c-Met
# Remark: another data set of the same source
row,Binder,IC50 [nM]
1,"El-A18 (E1 derived anti-c-Met antibody) (antibody, V domains shown) VH: not shown VL: QSVVTQPPSVSGAPGQRVTISCIGSASNIGAGHDVHWYQQLPGTAPKLLIYGNSNRPSGVPDRFSGSKSGTSASLAITGLQAEDEADYYCQSYSSSLSAYVFGTGTKVTVL",2.69
2,"El-B11 (E1 derived anti-c-Met antibody) (antibody, V domains shown) VH: QVQLVQSGAEVKKPGASVKVSCKASGYTFSGDYIHWVRQAPGQGLEWMGWINPNSGGTNYAQKFQGRVTMTRDTSISTAYMELSRLRSDDTAVYYCAREPARDYYYYDGLDVWGQGTTVTVSS VL: QSVVTQPPSVSGAPGQRVTISCIGSSSNIGAGYDVHWYQQLPGTAPKLLIYGNSNRISGVPDRFSGSKSGTSASLAITGLQAEDEADYYCQSYSSSLSAVLFGTGTKVTVL",2.98
3,"El-A14 (E1 derived anti-c-Met antibody) (antibody, V domains shown) VH: QVQLVQSGAEVKKPGASVKVSCKASGYTFSGDYIHWVRQAPGQGLEWMGWINPNSGGTNYAQKFQGRVTMTRDTSISTAYMELSRLRSDDTAVYYCAREPARDYYYYDGLDVWGQGTTVTVSS VL: QSVVTQPPSVSGAPGQRVTISCIGSSSNIGAGHDVHWYQQLPGTAPKLLIYGNSNRPSGVPDRFSGSKSGTSASLAITGLQAEDEADYYCQSYSSSLSAYVFGTGTKVTVL",2.31
4,"El-B19 (E1 derived anti-c-Met antibody) (antibody, V domains shown) VH: QVQLVQSGAEVKKPGASVKVSCKASGFTFSGDYIHWVRQAPGQGLEWMGWINPNSGGTNYAQKFQGRVTMTRDTSISTAYMELSRLRSDDTAVYYCAREPGRDYYYYDGLDVWGQGTTVTVSS VL: QSVVTQPPSVSGAPGQRVTISCLGSASNIGAGHDVHWYQQLPGTAPKLLIYGNSNRPSGVPDRFSGSKSGTSASLAITGLQAEDEADYYCQSYSSSLSAVLFGTGTKVTVL",2.63
5,"El-A11 (E1 derived anti-c-Met antibody) (antibody, V domains shown) VH: QVQLVQSGAEVKKPGASVKVSCKASGFTFSGDYIHWVRQAPGQGLEWMGWINPNSGGTNYAQKFQGRVTMTRDTSISTAYMELSRLRSDDTAVYYCAREPARDYYYYDGLDVWGQGTTVTVSS VL: QSVVTQPPSVSGAPGQRVTISCLGSSSNIGAGHDVHWYQQLPGTAPKLLIYGNSNRISGVPDRFSGSKSGTSASLAITGLQAEDEADYYCQSYSSSLSAYLFGTGTKVTVL",2.26
6,"El-BR1 (E1 derived anti-c-Met antibody) (antibody, V domains shown) VH: QVQLVQSGAEVKKPGASVKVSCKASGSTFSGDYLHWVRQAPGQGLEWMGWINPNSGGTNYAQKFQGRVTMTRDTSISTAYMELSRLRSDDTAVYYCAREPARDYYYYDGLDVWGQGTTVTVSS VL: QSVVTQPPSVSGAPGQRVTISCLGSASNIGAGYDVHWYQQLPGTAPKLLIYGNSNRPSGVPDRFSGSKSGTSASLAITGLQAEDEADYYCQSYSSSLSAVLFGTGTKVTVL",3.11
7,"El-A10 (E1 derived anti-c-Met antibody) (antibody, V domains shown) VH: not shown VL: QSVVTQPPSVSGAPGQRVTISCLGSASNIGAGHDVHWYQQLPGTAPKLLIYGNSNRPSGVPDRFSGSKSGTSASLAITGLQAEDEADYYCQSYSSSLSAYVFGTGTKVTVL",2.61

# Molecular target: T1, recombinant c-Met extracellular domain …
# Experiment: Octet Red (BLI)
# Remark: another data set of the same source
row,Binder,Kd [nM]
1,"A2 (antibody, V domains shown) VH: QVQLQESGPGLVKPSGTLSLTCAVSGGSISRSNWWSWVRQPPGKGLEWIGEVYHSGSTNYNPSLKSRVTISVDKSKNQFSLKVNSVTAADTAVYYCARDSDGGYYFDYWGQGTLVTVSS VL: LPVLTQPASVSGSPGQSITISCTGTSSDVGGYKYVSWYQQHPGKAPKLLIYDVTDRPSGVSNRFSGSQSGNTASLTISGLQTEDEADYYCSSYTDNGALVVFGGGTKLTVL",2.2
2,"D6 anti-c-Met antibody in IgG format (antibody, V domains shown) VH: QVQLQQWGAGLLKPSETLSLTCAVYGGSFSGYYWSWIRQPPGKGLEWIGEINHSGSTNYNPSLKSRVTISVDTSKNQFSLKLSSVTAADTAVYYCARGRDGYDFDPWGQGTLVTVSS VL: QSVLTQPPSASGSPGQSVTISCTGTSSDVGGYNYVSWYQQHPGKAPKLMIYEVSKRPSGVPDRFSGSKSGNTASLTVSGLQAEDEADYYCSSYAGSNNLVVFGGGTQLTVL",1.9
